From patent US20210317231A1 (BYONDIS B V, published 2021)
Substitutions are numbered along the chain they refer to. Each block holds one binder with its values, some of them ahead of it.

How the values were obtained:
[1] = molecular target: T1, human 5T4 oncofoetal antigen (human, UniProt Q13641 32-420); experiment: flow cytometry, CHOZN cells expressing hu 5T4
T1 construct: whole, on cells; also called hu 5T4; human 5T4 antigen
T1 sequence (looked up): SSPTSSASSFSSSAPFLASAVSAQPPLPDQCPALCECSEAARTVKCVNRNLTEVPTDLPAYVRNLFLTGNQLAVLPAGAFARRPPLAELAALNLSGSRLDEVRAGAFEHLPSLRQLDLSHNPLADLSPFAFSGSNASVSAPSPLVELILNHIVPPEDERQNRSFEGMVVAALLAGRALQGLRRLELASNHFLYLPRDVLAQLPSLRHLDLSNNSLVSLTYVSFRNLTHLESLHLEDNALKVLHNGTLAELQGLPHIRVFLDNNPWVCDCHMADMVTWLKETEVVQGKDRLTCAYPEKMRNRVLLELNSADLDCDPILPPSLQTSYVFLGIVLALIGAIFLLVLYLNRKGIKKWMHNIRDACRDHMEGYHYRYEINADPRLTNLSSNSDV

[2] = molecular target: T2, cynomolgus monkey 5T4 antigen (cynomolgus monkey, UniProt Q4R8Y9 35-420); experiment: flow cytometry, CHOZN cells expressing cyno 5T4
T2 construct: whole, on cells; also called cyno 5T4
T2 sequence (looked up): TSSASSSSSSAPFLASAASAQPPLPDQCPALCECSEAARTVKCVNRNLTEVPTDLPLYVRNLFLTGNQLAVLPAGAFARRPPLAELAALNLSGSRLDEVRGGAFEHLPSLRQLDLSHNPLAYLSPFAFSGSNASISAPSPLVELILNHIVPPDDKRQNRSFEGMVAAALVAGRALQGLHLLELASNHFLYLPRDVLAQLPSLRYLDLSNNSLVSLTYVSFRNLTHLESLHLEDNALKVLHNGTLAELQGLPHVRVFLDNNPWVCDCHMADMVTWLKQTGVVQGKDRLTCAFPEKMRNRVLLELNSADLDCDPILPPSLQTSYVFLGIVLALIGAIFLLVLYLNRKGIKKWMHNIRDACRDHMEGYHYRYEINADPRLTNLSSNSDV

EC50 [1]: 0.15 µg/mL
EC50 [2]: 0.53 µg/mL
B1: humanized anti-5T4 antibody 825a with HC-41C mutation (antibody, human IgG1, kappa, V domains shown)
VH: EVQLVESGGDLAQPGGSLRLSCAVSGIDLSSYGMGWVRQACGKGLEWVSIISRNSVTYYATWAKGRFTISRDNSKNTVYLQMTSLRAEDTALYFCARRATYSGALGYFDIWGQGTLVTVSS
VL: EIVMTQSPSSLSASVGDRVTITCQASENIYSTLAWYQQKPGKAPKLLIYDAFDLASGVPSRFSGSGSGTDYTLTISSLQPEDFATYYCQQGYSGTNVDNAFGQGTKLEIKR

EC50 [1]: 0.21 µg/mL
EC50 [2]: 0.42 µg/mL
B2: humanized anti-5T4 antibody 825c with HC-41C mutation (antibody, human IgG1, kappa, V domains shown)
VH: B1 VH with V5E, D10G, A12V, Q13K, V24A, V78L, T83N, L92V, F94Y, Q113R
VL: B1 VL with E1G, I2Y, V3D, L11V, S63K, D70E, Q103G, L107V
